{"source": "paper PMC7768483", "about": "“Gbx2 Is Required for the Migration and Survival of a Subpopulation of Trigeminal Cranial Neural Crest Cells”", "binders": {"B1": {"name": "NRP1 oligonucleotide (dsDNA)", "DNA 1": "AACATTCCAAAAATTATCAACCATTTCAGGAATACATTTCATAAAAGCTAGATTGAGTTCTGCTTGTTTTTTATT", "DNA 2": "AATAAAAAACAAGCAGAACTCAATCTAGCTTTTATGAAATGTATTCCTGAAATGGTTGATAATTTTTGGAATGTT"}}, "molecular_target": "GBX2 (full-length) (mouse, UniProt P48031 1-348)", "sequence (P48031 whole entry)": "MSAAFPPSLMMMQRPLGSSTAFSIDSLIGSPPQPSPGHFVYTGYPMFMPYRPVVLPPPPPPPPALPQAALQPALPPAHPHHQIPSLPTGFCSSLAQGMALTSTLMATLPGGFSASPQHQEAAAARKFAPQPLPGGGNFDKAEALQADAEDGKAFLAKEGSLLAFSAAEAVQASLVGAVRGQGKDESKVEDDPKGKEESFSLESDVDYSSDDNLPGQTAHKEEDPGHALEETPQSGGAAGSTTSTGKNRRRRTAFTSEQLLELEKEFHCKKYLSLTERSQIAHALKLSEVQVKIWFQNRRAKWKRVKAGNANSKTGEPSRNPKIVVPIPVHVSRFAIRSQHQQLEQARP", "assay": "EMSA; 720 nM GBX2, 940 pM probe; supershift with GBX2 antibody; 2X binding buffer: 20 mM Tris-HCl pH 7.4, 50 mM KCl, 1 mM DTT, 10% glycerol, 200 µg/mL BSA, 2.2 µg/mL poly dI/dC; 30 min at 25 °C; 6% native PAGE, Tris-glycine", "settings": "protein: recombinant; label: 32P end label (probe); blunt", "data": [{"binder": "B1", "values": [{"measurement": "binding result", "value": "binds"}]}]}
